B1: GpH7-A5/GpH7-B3 variant N325_06M/GpL16-k0 (antibody, human IgG1, kappa)
heavy 1: not shown
heavy 2: not shown
light: DIVMTQSPLSLPVTPGEPASISCQASESLVHSNRNTYLHWYLQKPGQSPQLLIYKVSNRFSGVPDRFSGSGSGTDFTLKISRVEAEDVGVYYCSQNTHVPPTFGQGTKVEIERTVAAPSVFIFPPSDEQLKSGTASVVCLLNNFYPREAKVQWKVDNALQSGNSQESVTEQDSKDSTYSLSSTLTLSKADYEKHKVYACEVTHQGLSSPVTKSFNRGEC
notes: He Ab: mutation in the GpH7-B3 H chain only; also called He Ab
B2: GpH7-A5/GpH7-B3 variant S267_03V/GpL16-k0 (antibody, human IgG1, kappa)
heavy 1: not shown
heavy 2: not shown
light: B1 light
notes: as for B1
B3: GpH7-A5/GpH7-B3 variant N325_20W/GpL16-k0 (antibody, human IgG1, kappa)
heavy 1: not shown
heavy 2: not shown
light: B1 light
notes: as for B1
B4: GpH7-A5/GpH7-B3 variant N325_13S/GpL16-k0 (antibody, human IgG1, kappa)
heavy 1: not shown
heavy 2: not shown
light: B1 light
notes: as for B1
B5: GpH7-A5/GpH7-B3 variant N325_04F/GpL16-k0 (antibody, human IgG1, kappa)
heavy 1: not shown
heavy 2: not shown
light: B1 light
notes: as for B1
B6: GpH7-A5/GpH7-B3 variant S267_09D/GpL16-k0 (antibody, human IgG1, kappa)
heavy 1: not shown
heavy 2: not shown
light: B1 light
notes: as for B1
B7: GpH7-A5/GpH7-B3 variant P331_07I/GpL16-k0 (antibody, human IgG1, kappa)
heavy 1: not shown
heavy 2: not shown
light: B1 light
notes: as for B1
B8: GpH7-A5/GpH7-B3 variant V266_02A/GpL16-k0 (antibody, human IgG1, kappa)
heavy 1: not shown
heavy 2: not shown
light: B1 light
notes: as for B1
B9: GpH7-A5/GpH7-B3 variant P331_10E/GpL16-k0 (antibody, human IgG1, kappa)
heavy 1: not shown
heavy 2: not shown
light: B1 light
notes: as for B1
B10: GpH7-A5/GpH7-B3 variant S267_04F/GpL16-k0 (antibody, human IgG1, kappa)
heavy 1: not shown
heavy 2: not shown
light: B1 light
notes: as for B1
B11: GpH7-A5/GpH7-B3 variant V266_16H/GpL16-k0 (antibody, human IgG1, kappa)
heavy 1: not shown
heavy 2: not shown
light: B1 light
notes: as for B1
B12: GpH7-A5/GpH7-B3 variant V266_04F/GpL16-k0 (antibody, human IgG1, kappa)
heavy 1: not shown
heavy 2: not shown
light: B1 light
notes: as for B1
B13: GpH7-A5/GpH7-B3 variant N325_03V/GpL16-k0 (antibody, human IgG1, kappa)
heavy 1: not shown
heavy 2: not shown
light: B1 light
notes: as for B1
B14: GpH7-A5/GpH7-B3 variant S267_05P/GpL16-k0 (antibody, human IgG1, kappa)
heavy 1: not shown
heavy 2: not shown
light: B1 light
notes: as for B1
B15: GpH7-A5/GpH7-B3 variant V266_11K/GpL16-k0 (antibody, human IgG1, kappa)
heavy 1: not shown
heavy 2: not shown
light: B1 light
notes: as for B1
B16: GpH7-A5/GpH7-B3 variant P331_20W/GpL16-k0 (antibody, human IgG1, kappa)
heavy 1: not shown
heavy 2: not shown
light: B1 light
notes: as for B1
B17: GpH7-A5/GpH7-B3 variant P331_16H/GpL16-k0 (antibody, human IgG1, kappa)
heavy 1: not shown
heavy 2: not shown
light: B1 light
notes: as for B1
B18: GpH7-A5/GpH7-B3 variant S267_06M/GpL16-k0 (antibody, human IgG1, kappa)
heavy 1: not shown
heavy 2: not shown
light: B1 light
notes: as for B1
B19: GpH7-A5/GpH7-B3 variant V266_05P/GpL16-k0 (antibody, human IgG1, kappa)
heavy 1: not shown
heavy 2: not shown
light: B1 light
notes: as for B1
B20: GpH7-A5/GpH7-B3 variant N325_07I/GpL16-k0 (antibody, human IgG1, kappa)
heavy 1: not shown
heavy 2: not shown
light: B1 light
notes: as for B1
B21: GpH7-A5/GpH7-B3 variant V266_15Y/GpL16-k0 (antibody, human IgG1, kappa)
heavy 1: not shown
heavy 2: not shown
light: B1 light
notes: as for B1
B22: GpH7-A5/GpH7-B3 variant S267_07I/GpL16-k0 (antibody, human IgG1, kappa)
heavy 1: not shown
heavy 2: not shown
light: B1 light
notes: as for B1
B23: GpH7-A5/GpH7-B3 variant V266_10E/GpL16-k0 (antibody, human IgG1, kappa)
heavy 1: not shown
heavy 2: not shown
light: B1 light
notes: as for B1

The binders below were run against T1, FcγRIIIa extracellular domain with C-terminal His tag (human, UniProt P08637 17-208) (assay: SPR (Biacore), relative binding, GpH7-A5/GpH7-B3/GpL16-k0 = 100).
T1 construct: extracellular domain; also called 3a; FcgRIIIa; not shown: His tag at the C terminus
T1 sequence (P08637 17-208): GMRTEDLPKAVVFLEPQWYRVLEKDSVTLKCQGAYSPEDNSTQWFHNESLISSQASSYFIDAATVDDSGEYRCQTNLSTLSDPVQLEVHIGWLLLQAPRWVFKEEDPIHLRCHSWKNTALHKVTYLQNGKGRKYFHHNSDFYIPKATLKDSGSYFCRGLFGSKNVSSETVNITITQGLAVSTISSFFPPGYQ
Experimental: (§1) Analysis of interaction between objective antibody and the FcγR was carried out using Biacore T100 (GE Healthcare). HBS-EP+ (GE Healthcare) was used as the running buffer, and the measurement temperature was set to 25° C. Chips produced by immobilizing the antigen peptide by the amine coupling method to a Series S Sencor Chip CM5 (GE Healthcare), or alternatively, chips produced by allowing preliminarily biotinylated antigen peptides to interact with and immobilize onto a Series S Sensor Chip SA (certified) (GE Healthcare) were used. Antibodies of interest were captured onto an antigen peptide-immobilized chip, and allowed to interact to each FcγR diluted with running buffer. To regenerate and repeatedly use the chip, the antibodies captured on the chip were washed off by reacting 10 mM glycine-HCl, pH 1.5.
(§2) The FcγR-binding activity of each antibody was assessed primarily using as an indicator the FcγR-binding activity and dissociation constant for FcγR.

Row | Binder | He/Con_3a
1 | B1 | 31.4 % of control
2 | B2 | 30.8 % of control
3 | B3 | 32.8 % of control
4 | B4 | 65.1 % of control
5 | B5 | 20.7 % of control
6 | B6 | 181 % of control
7 | B7 | 66 % of control
8 | B8 | 57.4 % of control
9 | B9 | 75.1 % of control
10 | B10 | 11 % of control
11 | B11 | 21.3 % of control
12 | B12 | 34.7 % of control
13 | B13 | 30.3 % of control
14 | B14 | 15.7 % of control
15 | B15 | -0.7 % of control
16 | B16 | 78.6 % of control
17 | B17 | 80.2 % of control
18 | B18 | 66 % of control
19 | B19 | -0.7 % of control
20 | B20 | 28.7 % of control
21 | B21 | 14.5 % of control
22 | B22 | 25.2 % of control
23 | B23 | 4.1 % of control

What follows are binders tested against T2, FcγRIIb extracellular domain with C-terminal His tag (human, UniProt P31994 43-217) in the same assay as above.
T2 construct: extracellular domain; also called 2b; FcgRIIb; not shown: His tag at the C terminus
T2 sequence (looked up): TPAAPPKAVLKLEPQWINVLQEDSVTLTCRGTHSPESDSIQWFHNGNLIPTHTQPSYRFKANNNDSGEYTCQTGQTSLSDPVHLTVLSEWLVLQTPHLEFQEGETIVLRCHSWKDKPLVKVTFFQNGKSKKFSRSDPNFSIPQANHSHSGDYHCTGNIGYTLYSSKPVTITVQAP
Experimental: as §1, §2

Row | Binder | He/Con_2b
24 | B1 | 217 % of control
25 | B2 | 192 % of control
26 | B3 | 169 % of control
27 | B4 | 177 % of control
28 | B5 | 143 % of control
29 | B6 | 310 % of control
30 | B7 | 114 % of control
31 | B8 | 81 % of control
32 | B9 | 116 % of control
33 | B10 | 48 % of control
34 | B11 | 57.2 % of control
35 | B12 | 57.6 % of control
36 | B13 | 111 % of control
37 | B14 | 31.5 % of control
38 | B15 | 1 % of control
39 | B16 | 111 % of control
40 | B17 | 116 % of control
41 | B18 | 210 % of control
42 | B19 | 0.4 % of control
43 | B20 | 171 % of control
44 | B21 | 49.4 % of control
45 | B22 | 192 % of control
46 | B23 | 15.2 % of control
